Results on one substance are retold here after publication PMC3210727.

This experiment deals with H3N2 A/Hong Kong/1/1968 HA [change] (influenza A virus A/Hong Kong/1/1968 (H3N2)).

Values joined by “and” are separate entries in the source; they are usually repeats but may differ in a detail not shown here. Identical values can stand only once.

As to human monoclonal antibody CR8020, the Kd is 2 nM and 3 nM.
